Consider 4 substances from article doi:10.1101/2022.11.10.512828.

Assay [1] addresses unmodified lumazine synthase from Saccharomyces cerevisiae (LS^wt) (Saccharomyces cerevisiae) (UniProt P50861). Put plainly: AUC.
Assay [2] shares this target. Put plainly: SEC. In general terms: In gel filtration, larger molecules generally elute earlier.
Assay [3] deals with LS-αβICD, heteropentamer of two LS-αICD and three LS-βICD chains (Saccharomyces cerevisiae | rat) (UniProt P50861). The experiment in a line: ITC. (In general: Isothermal titration calorimetry measures the heat released or taken up as one component is titrated into another.)
The target is the same in assay [4]. The experiment in a line: SEC.
The target is the same in assay [5]. The experiment in a line: SEC. The source holds these as a separate data set.
The target is the same in assay [6]. Put plainly: SEC. The source holds these as a separate data set.
The target of assay [7] is LS-αICD chain of the co-expression construct (pETDuet1, first cloning site) (Saccharomyces cerevisiae | rat) (UniProt P50861). Put plainly: densitometry of Coomassie-stained SDS-PAGE bands of the purified complex. To be noted: scale: βICD chains to 2 αICD chains in the pentamer.

pKd: −log10 of the molar value. Read-outs that look alike come from different tables or passages of the source.

One may read the stoichiometry N as a count of units in the complex or per binding partner. “unmodified lumazine synthase from Saccharomyces cerevisiae (LS^wt) (from UniProt P50861 2-169) (enzyme)”: the stoichiometry N in assay [1] and in assay [2] was 5 in each case.

The term pKd denotes −log10 of the Kd, conventionally taken in molar units. “gephyrin E-domain (GephE) dimer (domain or fragment)”: in assay [3], the pKd was 6.17 and the stoichiometry N was 0.41.

Take “full-length rat gephyrin splice variant rC4 (natural protein)”: the amount of gephyrin bound in assay [4] turned out to be 4 nmol. Further, the stoichiometry N (gephyrin trimers to 3 LS pentamers) in assay [5] stood at 4. In addition, in assay [6], the amount of gephyrin bound is 3 nmol, the percent of gephyrin bound worked out at 75%, the stoichiometry N (gephyrin trimer per LS pentamer) was 1 and the stoichiometry N (gephyrin trimers to 3 LS pentamers) was 3. In assay [3], the pKd is 6.31 and the stoichiometry N came out at 0.57.

“LS-βICD chain of the co-expression construct (pETDuet1, second cloning site) (from UniProt P50861 1-138; P50861 139-169)” returned a stoichiometry N in assay [7] of 3.
